Substrate: O=[N+]([O-])c1ccc(OS(=O)(=O)O)cc1
Experiment: purified protein
Format: biochemical, Escherichia coli
Conditions: varied donor pNPS 0.02-50 mM, acceptor phenol (5-200 mM), 30 °C, activity buffer Tris-glycine pH 8.9

B1: EcAST (Escherichia coli CFT073) (protein)
chain: AGFKPAPPAGQLGAVIVDPYGNAPLTALVDLDSHVISDVKVTVHGKGEKGVEISYPVGQESLKTYDGVPIFGLYQKFANKVTVEWKENGKVMKDDYVVHTSAIVNNYMDNRSISDLQQTKVIKVAPGFEDRLYLVNTHTFTAQGSDLHWHGEKDKNAGILDAGPATGALPFDIAPFTFIVDTEGEYRWWLDQDTFYDGRDRDINKRGYLMGIRETPRGTFTAVQGQHWYEFDMMGQVLEDHKLPRGFADATHESIETPNGTVLLRVGKSNYRRDDGVHVTTIRDHILEVDKSGRVVDVWDLTKILDPKRDALLGALDAGAVCVNVDLAHAGQQAKLEPDTPFGDALGVGPGRNWAHVNSIAYDAKDDSIILSSRHQGVVKIGRDKQVKWILAPSKGWEKPLASKLLKPVDANGKPITCNENGLCENSDFDFTYTQHTAWISSKGTLTIFDNGDGRHLEQPALPTMKYSRFVEYKIDEKKGTVQQVWEYGKERGYDFYSPITSIIEYQADRNTMFGFGGSIHLFDVGQPTVGKLNEIDYKTKEVKVEIDVLSDKPNQTHYRALLVRPQQMFK
notes: C-terminal His6 tag, pET-26b(+) NcoI/SacI, E. coli BL21(DE3)pLysS, IMAC, ca. 70 kDa
With B1 the Km was 710 ± 30 µM, the kcat was 41.1 ± 0.5 s⁻¹ and the kcat/Km was 57000 M⁻¹ s⁻¹.

Source: publication PMC11468790, “New Bacterial Aryl Sulfotransferases: Effective Tools for Sulfation of Polyphenols” (Journal of Agricultural and Food Chemistry, 2024)
